Assay: yeast display, Sf9 membrane polyspecificity reagent, FACS + sequencing; frameworks hold sequencing errors
Outline: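 In a synthetic yeast display library (Saccharomyces cerevisiae BJ5465), nanobody expression was induced with galactose for 36–48 hours. FACS gates were set low and high (top ~1%) using anti-HA fluorescence for expression and streptavidin fluorescence for binding of the Sf9 membrane reagent. Each polyreactivity label is drawn from the gate of origin.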
In the case of “QVQLVESGGGLVQAGGSLRVSCAASGRSFWTDTMGWYRQAPGKEREFVAAITFGDGSTSYADSVKGRFTISRDNAKNTVYLQMNSLKPEDTAVYYCAKRWRRRFVDVWSLYDYWGQGTQVTVSS”, the “polyreactivity (PSR sort gate)” value is reported as “low polyreactivity”. For “QVQLVESGGGLVQAGGSLRVSCAASGRTCRYYAMGWYRQEHGTEREWVAVISWSGGTTRYADSVKGRFTISRDNAKNTVYIQMNSLKPEDTAVYYCAARVSVWYNYWGQGTQVTVSS”, the “polyreactivity (PSR sort gate)” value was “high polyreactivity”. For “QVQLVESGGGLVQAGGSLRVSCAASGRTFARYALAWYRQAPGKERELVAAISRGGTTNYADSVKGRFTISRDNAKNTVYLQMNSLKPEDTAVDYCNRDFHLSHLSSARLDYWGQGTQVTVSS”, the “polyreactivity (PSR sort gate)” value was “low polyreactivity”. In the case of “QVQLVESGGGLVQAGGSLRVSCAASGRTFGRYAMGWYRQATGKERELVAAISYSGGSTYYADSVKGRFTISRDNAKNNVYLQMNSLKPEDTAVYYCAAYYSGKDGYWGQGTQVTVSS”, the “polyreactivity (PSR sort gate)” value is reported as “high polyreactivity”. With “QVQLVESGGGLVQAGGSLRVSCAASGRTFWTNAMGWYRQAPGKEREILAAISWRGASTFYADSVKGRFTISRDNAKNTVYLQMNSLKPEDTAVYYCAAQSRTRSFYGKYDSWGQGTQVTVSS” the “polyreactivity (PSR sort gate)” value was “low polyreactivity”. For “QVQLVESGGGLVQAGGSLRVSCAASGSIFIRYAMGWYRQAPGKERELVAAIRSSGGSTYADSVKGRFTISRDNAKNTVYLQMISLKPEDTAVYYCAAGRSSKNSYSYPYYYWGQGTQVTVSS”, the “polyreactivity (PSR sort gate)” value was “high polyreactivity”. In the case of “QVQLVESGGGLVQAGGSLRVSCAASGSIFSYYAMGWYRQAPGKEREFVAAISWSGGSTYYADSVKGRFTISRDNAKNTVYLQMNSLKPEDTAVYYCAAELSLSWLVPDVPYYYWGQGTQVTVSS”, the “polyreactivity (PSR sort gate)” value is reported as “low polyreactivity”. With “QVQLVESGGGLVQAGGSLRVSCAASGSIFYGNAMGWYRQAPGKARELVAAISNVGRTDYADSVKGRFTISRDNAKPTVYLQMNSLKPEDTADYSCAAGVYSGSNRYYAPRSWFGYYYWGQGTQVTVSS” the “polyreactivity (PSR sort gate)” value was “low polyreactivity”. For “QVQLVESGGGLVQAGGSLRVSCAASGSIFYSNAMGWYRQAPGKERELVAAITRRGGSTYYADSVKGRFTISRDIATNPVYLQMNSLIPEDTAVYYCAARSKTSNLFNYWGQGTQVTVSS”, the “polyreactivity (PSR sort gate)” value was “high polyreactivity”. In the case of “QVQLVESGGGLVQAGGSLRVSCAASGSNFPRYAMGWYRQAPGKERELVAAISGRGGSTYYADSVKGRFTISRDNAKNTVYLQMNSLKPEDTAVYYCNAVGHTSIRRALDILDYWGQGTQVTVSS”, the “polyreactivity (PSR sort gate)” value is reported as “high polyreactivity”. With “QVQLVESGGGLVQAGGSLRVSCAASGSTFLVYARGWYRQAPGKERELVAAISWSGGSTYYADSVKGRFTISRDNAKKTVYLQMNSLKPEDTAVYYCNAEGIYRQPRGYVYRYDYWGQGTQVTVSS” the “polyreactivity (PSR sort gate)” value was “high polyreactivity”. With “QVQLVESGGGLVQAGGSLRVSCAASGSTFRKYAMGWYRQAPGKEREFVAAITSSGGSTYYADSVKGRFTISRDNAKNTLYLQMNSLKPEDTAVYYCAARGDSVSTAYNYWGQGTQVTVSS” the “polyreactivity (PSR sort gate)” value was “high polyreactivity”. For “QVQLVESGGGLVQAGGSLRVSCAASGSTFSQYAMGLYRQAPGKEREFVAVITLSVVSTSYADSVKGRFTFSRDNAKNTVYLQMNSQKPEDTAVYYCNKDSGVRGPGYGYWGQGTQVTVSS”, the “polyreactivity (PSR sort gate)” value was “low polyreactivity”. In the case of “QVQLVESGGGLVQAGGSLRVSCAASGSTFSYNAMGWYRQAPGKERELVASINSRGGTTYYADTVKVRFTISRDNAKNTVYLQMKSLKPEDTAVYYCATDVYRLGEYDYWGQGTQVTVSS”, the “polyreactivity (PSR sort gate)” value is reported as “low polyreactivity”. In the case of “QVQLVESGGGLVQAGGSLRVSCAASGSTFTAYAMGWYRQAPGKERELVAAINWSGGTTYYADSVKGRFTISRDNAKNTVYLQMNSLKPEDTAVYYCAVDGNFFGEVRPYDYWGQGTQVTVSS”, the “polyreactivity (PSR sort gate)” value is reported as “low polyreactivity”. For “QVQLVESGGGLVQAGGSLRVSCAASGSTFTGYAMGWYRQAPGKERELVAAISRGGSTNYADSVKGRFTISRDNAKNTVYLQMNSLKPEDTAVYYCAAETYYFGYGYWGQGTQVTVSS”, the “polyreactivity (PSR sort gate)” value was “high polyreactivity”. For “QVQLVESGGGLVQAGGSLRVSCAASGSTFTNYAMGVYRQAPRKERELIARITYNVGRTYYADSVKGRFTISRDNAKNTVYLQMNSLKPEDTAVYYCAAGVGWRYRVRWYYYLGDYWGQVTQVTVSS”, the “polyreactivity (PSR sort gate)” value was “high polyreactivity”. In the case of “QVQLVESGGGLVQAGGSLRVSCAASGSTFYYNAMGWYRQATGKERELVAAITRSAGSTYYADSVKGRFTISRDNAKNTVYLQMNSLKPEDTAVYYCNARYSFYGSYWTSGKYDYWGQGTQVTVSS”, the “polyreactivity (PSR sort gate)” value is reported as “high polyreactivity”. In the case of “QVQLVESGGGLVQAGGSLRVSCAASGSTLGRNTMGWYRQAPGKVRELVAAITITDSTNYADSVKGRFTISRDNAKNTVYLQMNSLKPEDTAVYYGAKRRYYSTPRWGSSTYDYWGLGTQVTVSS”, the “polyreactivity (PSR sort gate)” value is reported as “low polyreactivity”. In the case of “QVQLVESGGGLVQAGGSLRVSCAASGSTLVFNAMGWYRQAPGKEREIVAAISKSGGSRYYADSVKGRFTISRDNAKNTVYLQMNSLKPEDTAVYYCAPDSGGPGYAMDYWGQGTQVTVSS”, the “polyreactivity (PSR sort gate)” value is reported as “high polyreactivity”. For “QVQLVESGGGLVQAGGSLRVSCAASGYIFTPYAMGWYRQAPGKERELVAAISSSTVRTFYADSVKGRFTISRDNAKNTVYLQMNSLKPEDTAVYYCAARGYWGQGTQVTVSS”, the “polyreactivity (PSR sort gate)” value was “high polyreactivity”. In the case of “QVQLVESGGGLVQAGGSLRVTCAASGRIFQRYVMGWYRQAPGKERELVAAITWSGGSTYADSVKGRFTISRDNAKNTVYLQMNSLKTEDTAVYYFAARVPYNYWGMYYLYDYWGQGTQVTVSS”, the “polyreactivity (PSR sort gate)” value is reported as “high polyreactivity”. In the case of “QVQLVESGGGLVQAGGSLRYICAASGFTFRPKVMGWYRQAHGKERELVAAISGSGGSTYYADSVKGRFTISRDNAKNTVYLQMNSLKPEDTAVYYSKDFPAFYDFGYWGQGTQVTVSS”, the “polyreactivity (PSR sort gate)” value is reported as “high polyreactivity”. For “QVQLVESGGGLVQAGGSLSISCAASGRTFPEYGMGWYRQAPGKDREFVAAISTRGGSTYYANSVKGRFTISGDNAKNTVYLQMNSLKPEDTAVYYCAKVYDRSGGDYWGQGTQVTVSS”, the “polyreactivity (PSR sort gate)” value was “low polyreactivity”. For “QVQLVESGGGLVQAGGSLSLICAASGFTFLIYAMGWYRQAPGKERELVAAITWRGSGTYYADSVKGRFTISRDNAKNTVYLQMNSLKPEDTAVYYCAARTARRTYDYWGQGTQVTLSS”, the “polyreactivity (PSR sort gate)” value was “low polyreactivity”. In the case of “QVQLVESGGGLVQAGGSLSLICAASGRIFLRNDMGWYRQAPGKERELVAGISSDGSTYYADSVKGRFTISRDNAKNTVYLQMNSLKPEDTAVYYCAAERWGNPTDYQFWRPYDYWGQGTQVNVSS”, the “polyreactivity (PSR sort gate)” value is reported as “low polyreactivity”. In the case of “QVQLVESGGGLVQAGGSLSLICAASGSTFTENAMGWYRQAPGKERELVAVITSSDGTTYYADSVKGRFTISRDNAKNTVYLQMISLKPEDTAVSYCAADPYYFWWRYDFWGQGTQVTVSS”, the “polyreactivity (PSR sort gate)” value is reported as “low polyreactivity”. In the case of “QVQLVESGGGLVQAGGSLSLRCAASGRTLDVYAMGWYRQAPGKERELVARITSGGSTNYADSVKGRFTISRDNAKNTVYLQMNSLKPEDTSVYYCNAVVYTRPYTRPRYRYDYWGQGTQVTVSS”, the “polyreactivity (PSR sort gate)” value is reported as “high polyreactivity”. With “QVQLVESGGGLVQAGGSLSLRCAGSGRTFRTYTMGWYRQARGKERELVAAISWSGSSTYYADSVKGRVTISRDHAKNTVYLQLNSLKPEDTAVYYCAARYVSRRFLGYYYWGQGTQVTVSS” the “polyreactivity (PSR sort gate)” value was “high polyreactivity”. With “QVQLVESGGGLVQAGGSLSLSCAASAHTFVTNAMGWYRQAPGKERELVAAISRSGGHTYYADSVKGRFTISRDNAKNTVYLQMNSLKPEDTAVYYCAKTRGPRTLYDYWGQGTQVTVSS” the “polyreactivity (PSR sort gate)” value was “high polyreactivity”.

From the nanobody polyreactivity screen of Harvey et al. (2022)
